Source: US20180155451A1 (published 2018)

T1: FcγRIIb extracellular domain with C-terminal His tag (human, UniProt P31994 43-217)
T1 construct: extracellular domain; expressed in FreeStyle293 cells; analyte in the Biacore assay; also called FcgRIIb; 2b; not shown: His tag at the C terminus
T1 sequence (looked up): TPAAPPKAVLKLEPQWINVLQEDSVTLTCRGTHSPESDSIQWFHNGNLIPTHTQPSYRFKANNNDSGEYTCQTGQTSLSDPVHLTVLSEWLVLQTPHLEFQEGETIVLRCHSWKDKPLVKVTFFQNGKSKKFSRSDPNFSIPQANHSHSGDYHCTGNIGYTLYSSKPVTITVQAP


target: T1, FcγRIIb extracellular domain with …; assay: SPR (Biacore), captured antibody, FcγRIIb analyte; binding relative to GpH7-B3/GpL16-k0 = 100

Row | Binder | Ho/Con_2b
1 | GpH7-B3 variant K326_09D/GpL16-k0 (antibody, human IgG1, kappa, homodimerized; mutation in both H chains; also called Ho Ab K326_09D) heavy: not shown light: DIVMTQSPLSLPVTPGEPASISCQASESLVHSNRNTYLHWYLQKPGQSPQLLIYKVSNRFSGVPDRFSGSGSGTDFTLKISRVEAEDVGVYYCSQNTHVPPTFGQGTKVEIERTVAAPSVFIFPPSDEQLKSGTASVVCLLNNFYPREAKVQWKVDNALQSGNSQESVTEQDSKDSTYSLSSTLTLSKADYEKHKVYACEVTHQGLSSPVTKSFNRGEC | 240 % of control
2 | GpH7-B3 variant K326_19Q/GpL16-k0 (antibody, human IgG1, kappa, homodimerized; mutation in both H chains; label printed K326_190, read as K326_19Q; also called Ho Ab K326_19Q) heavy: not shown light: DIVMTQSPLSLPVTPGEPASISCQASESLVHSNRNTYLHWYLQKPGQSPQLLIYKVSNRFSGVPDRFSGSGSGTDFTLKISRVEAEDVGVYYCSQNTHVPPTFGQGTKVEIERTVAAPSVFIFPPSDEQLKSGTASVVCLLNNFYPREAKVQWKVDNALQSGNSQESVTEQDSKDSTYSLSSTLTLSKADYEKHKVYACEVTHQGLSSPVTKSFNRGEC | 163 % of control
3 | GpH7-B3 variant K326_15Y/GpL16-k0 (antibody, human IgG1, kappa, homodimerized; mutation in both H chains; also called Ho Ab K326_15Y) heavy: not shown light: DIVMTQSPLSLPVTPGEPASISCQASESLVHSNRNTYLHWYLQKPGQSPQLLIYKVSNRFSGVPDRFSGSGSGTDFTLKISRVEAEDVGVYYCSQNTHVPPTFGQGTKVEIERTVAAPSVFIFPPSDEQLKSGTASVVCLLNNFYPREAKVQWKVDNALQSGNSQESVTEQDSKDSTYSLSSTLTLSKADYEKHKVYACEVTHQGLSSPVTKSFNRGEC | 162 % of control
4 | GpH7-B3 variant K326_20W/GpL16-k0 (antibody, human IgG1, kappa, homodimerized; mutation in both H chains; also called Ho Ab K326_20W) heavy: not shown light: DIVMTQSPLSLPVTPGEPASISCQASESLVHSNRNTYLHWYLQKPGQSPQLLIYKVSNRFSGVPDRFSGSGSGTDFTLKISRVEAEDVGVYYCSQNTHVPPTFGQGTKVEIERTVAAPSVFIFPPSDEQLKSGTASVVCLLNNFYPREAKVQWKVDNALQSGNSQESVTEQDSKDSTYSLSSTLTLSKADYEKHKVYACEVTHQGLSSPVTKSFNRGEC | 132 % of control
5 | GpH7-B3 variant K326_14T/GpL16-k0 (antibody, human IgG1, kappa, homodimerized; mutation in both H chains; also called Ho Ab K326_14T) heavy: not shown light: DIVMTQSPLSLPVTPGEPASISCQASESLVHSNRNTYLHWYLQKPGQSPQLLIYKVSNRFSGVPDRFSGSGSGTDFTLKISRVEAEDVGVYYCSQNTHVPPTFGQGTKVEIERTVAAPSVFIFPPSDEQLKSGTASVVCLLNNFYPREAKVQWKVDNALQSGNSQESVTEQDSKDSTYSLSSTLTLSKADYEKHKVYACEVTHQGLSSPVTKSFNRGEC | 177 % of control
6 | GpH7-B3 variant K326_16H/GpL16-k0 (antibody, human IgG1, kappa, homodimerized; mutation in both H chains; also called Ho Ab K326_16H) heavy: not shown light: DIVMTQSPLSLPVTPGEPASISCQASESLVHSNRNTYLHWYLQKPGQSPQLLIYKVSNRFSGVPDRFSGSGSGTDFTLKISRVEAEDVGVYYCSQNTHVPPTFGQGTKVEIERTVAAPSVFIFPPSDEQLKSGTASVVCLLNNFYPREAKVQWKVDNALQSGNSQESVTEQDSKDSTYSLSSTLTLSKADYEKHKVYACEVTHQGLSSPVTKSFNRGEC | 131 % of control
7 | GpH7-B3 variant K326_10E/GpL16-k0 (antibody, human IgG1, kappa, homodimerized; mutation in both H chains; also called Ho Ab K326_10E) heavy: not shown light: DIVMTQSPLSLPVTPGEPASISCQASESLVHSNRNTYLHWYLQKPGQSPQLLIYKVSNRFSGVPDRFSGSGSGTDFTLKISRVEAEDVGVYYCSQNTHVPPTFGQGTKVEIERTVAAPSVFIFPPSDEQLKSGTASVVCLLNNFYPREAKVQWKVDNALQSGNSQESVTEQDSKDSTYSLSSTLTLSKADYEKHKVYACEVTHQGLSSPVTKSFNRGEC | 237 % of control

The remaining lines, values ahead:

Row | Ho/Con_2b | Binder
8 | 110 % of control | GpH7-B3 variant K334_02A/GpL16-k0 (antibody, human IgG1, kappa, homodimerized; mutation in both H chains; also called Ho Ab K334_02A) heavy: not shown light: DIVMTQSPLSLPVTPGEPASISCQASESLVHSNRNTYLHWYLQKPGQSPQLLIYKVSNRFSGVPDRFSGSGSGTDFTLKISRVEAEDVGVYYCSQNTHVPPTFGQGTKVEIERTVAAPSVFIFPPSDEQLKSGTASVVCLLNNFYPREAKVQWKVDNALQSGNSQESVTEQDSKDSTYSLSSTLTLSKADYEKHKVYACEVTHQGLSSPVTKSFNRGEC
9 | 129 % of control | GpH7-B3 variant K334_10E/GpL16-k0 (antibody, human IgG1, kappa, homodimerized; mutation in both H chains; also called Ho Ab K334_10E) heavy: not shown light: DIVMTQSPLSLPVTPGEPASISCQASESLVHSNRNTYLHWYLQKPGQSPQLLIYKVSNRFSGVPDRFSGSGSGTDFTLKISRVEAEDVGVYYCSQNTHVPPTFGQGTKVEIERTVAAPSVFIFPPSDEQLKSGTASVVCLLNNFYPREAKVQWKVDNALQSGNSQESVTEQDSKDSTYSLSSTLTLSKADYEKHKVYACEVTHQGLSSPVTKSFNRGEC
10 | 112 % of control | GpH7-B3 variant K334_05P/GpL16-k0 (antibody, human IgG1, kappa, homodimerized; mutation in both H chains; also called Ho Ab K334_05P) heavy: not shown light: DIVMTQSPLSLPVTPGEPASISCQASESLVHSNRNTYLHWYLQKPGQSPQLLIYKVSNRFSGVPDRFSGSGSGTDFTLKISRVEAEDVGVYYCSQNTHVPPTFGQGTKVEIERTVAAPSVFIFPPSDEQLKSGTASVVCLLNNFYPREAKVQWKVDNALQSGNSQESVTEQDSKDSTYSLSSTLTLSKADYEKHKVYACEVTHQGLSSPVTKSFNRGEC
11 | 145 % of control | GpH7-B3 variant K334_03V/GpL16-k0 (antibody, human IgG1, kappa, homodimerized; mutation in both H chains; also called Ho Ab K334_03V) heavy: not shown light: DIVMTQSPLSLPVTPGEPASISCQASESLVHSNRNTYLHWYLQKPGQSPQLLIYKVSNRFSGVPDRFSGSGSGTDFTLKISRVEAEDVGVYYCSQNTHVPPTFGQGTKVEIERTVAAPSVFIFPPSDEQLKSGTASVVCLLNNFYPREAKVQWKVDNALQSGNSQESVTEQDSKDSTYSLSSTLTLSKADYEKHKVYACEVTHQGLSSPVTKSFNRGEC
12 | 137 % of control | GpH7-B3 variant K334_07I/GpL16-k0 (antibody, human IgG1, kappa, homodimerized; mutation in both H chains; also called Ho Ab K334_07I) heavy: not shown light: DIVMTQSPLSLPVTPGEPASISCQASESLVHSNRNTYLHWYLQKPGQSPQLLIYKVSNRFSGVPDRFSGSGSGTDFTLKISRVEAEDVGVYYCSQNTHVPPTFGQGTKVEIERTVAAPSVFIFPPSDEQLKSGTASVVCLLNNFYPREAKVQWKVDNALQSGNSQESVTEQDSKDSTYSLSSTLTLSKADYEKHKVYACEVTHQGLSSPVTKSFNRGEC
13 | 115 % of control | GpH7-B3 variant K334_04F/GpL16-k0 (antibody, human IgG1, kappa, homodimerized; mutation in both H chains; also called Ho Ab K334_04F) heavy: not shown light: DIVMTQSPLSLPVTPGEPASISCQASESLVHSNRNTYLHWYLQKPGQSPQLLIYKVSNRFSGVPDRFSGSGSGTDFTLKISRVEAEDVGVYYCSQNTHVPPTFGQGTKVEIERTVAAPSVFIFPPSDEQLKSGTASVVCLLNNFYPREAKVQWKVDNALQSGNSQESVTEQDSKDSTYSLSSTLTLSKADYEKHKVYACEVTHQGLSSPVTKSFNRGEC
14 | 114 % of control | GpH7-B3 variant K334_08L/GpL16-k0 (antibody, human IgG1, kappa, homodimerized; mutation in both H chains; also called Ho Ab K334_08L) heavy: not shown light: DIVMTQSPLSLPVTPGEPASISCQASESLVHSNRNTYLHWYLQKPGQSPQLLIYKVSNRFSGVPDRFSGSGSGTDFTLKISRVEAEDVGVYYCSQNTHVPPTFGQGTKVEIERTVAAPSVFIFPPSDEQLKSGTASVVCLLNNFYPREAKVQWKVDNALQSGNSQESVTEQDSKDSTYSLSSTLTLSKADYEKHKVYACEVTHQGLSSPVTKSFNRGEC
15 | 138 % of control | GpH7-B3 variant K334_14T/GpL16-k0 (antibody, human IgG1, kappa, homodimerized; mutation in both H chains; also called Ho Ab K334_14T) heavy: not shown light: DIVMTQSPLSLPVTPGEPASISCQASESLVHSNRNTYLHWYLQKPGQSPQLLIYKVSNRFSGVPDRFSGSGSGTDFTLKISRVEAEDVGVYYCSQNTHVPPTFGQGTKVEIERTVAAPSVFIFPPSDEQLKSGTASVVCLLNNFYPREAKVQWKVDNALQSGNSQESVTEQDSKDSTYSLSSTLTLSKADYEKHKVYACEVTHQGLSSPVTKSFNRGEC
16 | 117 % of control | GpH7-B3 variant K334_13S/GpL16-k0 (antibody, human IgG1, kappa, homodimerized; mutation in both H chains; also called Ho Ab K334_13S) heavy: not shown light: DIVMTQSPLSLPVTPGEPASISCQASESLVHSNRNTYLHWYLQKPGQSPQLLIYKVSNRFSGVPDRFSGSGSGTDFTLKISRVEAEDVGVYYCSQNTHVPPTFGQGTKVEIERTVAAPSVFIFPPSDEQLKSGTASVVCLLNNFYPREAKVQWKVDNALQSGNSQESVTEQDSKDSTYSLSSTLTLSKADYEKHKVYACEVTHQGLSSPVTKSFNRGEC
